Test results reported in patent US20150344888A1 (Genentech, published 2015).
Where a chain is given by its changes, count along the chain named. Where “and” joins values, the source holds several entries; their conditions need not be identical. Identical values can stand only once. Where no end group is shown, it is not given here.

Assays:
[1] = molecular target: T1, USP30 (active enzyme in the ubiquitin-AMC assay) (Homo sapiens (Human), UniProt Q70CQ3 57-517, limits assumed); assay: cell-based or functional assay
T1 sequence: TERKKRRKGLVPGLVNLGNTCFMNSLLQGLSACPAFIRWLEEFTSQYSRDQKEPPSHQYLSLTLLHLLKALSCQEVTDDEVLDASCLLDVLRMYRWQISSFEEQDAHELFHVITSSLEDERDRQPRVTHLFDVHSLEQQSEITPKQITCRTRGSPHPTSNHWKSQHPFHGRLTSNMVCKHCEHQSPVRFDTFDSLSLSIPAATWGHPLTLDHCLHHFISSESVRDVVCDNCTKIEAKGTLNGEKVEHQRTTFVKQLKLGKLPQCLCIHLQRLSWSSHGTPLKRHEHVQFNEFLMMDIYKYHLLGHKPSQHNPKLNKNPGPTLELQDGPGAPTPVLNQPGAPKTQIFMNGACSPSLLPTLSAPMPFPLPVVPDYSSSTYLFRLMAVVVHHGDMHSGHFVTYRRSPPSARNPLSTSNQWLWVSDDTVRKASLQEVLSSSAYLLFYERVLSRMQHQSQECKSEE

UCHL3 = molecular target: T2, UCHL3 (UniProt P15374 1-230); assay: cell-based or functional assay
T2 sequence (looked up): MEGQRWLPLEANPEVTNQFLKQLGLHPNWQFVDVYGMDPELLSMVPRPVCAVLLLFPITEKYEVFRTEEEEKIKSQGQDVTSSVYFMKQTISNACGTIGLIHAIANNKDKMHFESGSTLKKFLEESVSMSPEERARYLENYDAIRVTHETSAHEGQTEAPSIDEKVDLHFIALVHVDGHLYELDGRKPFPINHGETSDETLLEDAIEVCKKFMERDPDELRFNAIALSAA

USP5 = molecular target: T3, USP5 (UniProt P45974 1-858, limits assumed); assay: cell-based or functional assay
T3 sequence (looked up): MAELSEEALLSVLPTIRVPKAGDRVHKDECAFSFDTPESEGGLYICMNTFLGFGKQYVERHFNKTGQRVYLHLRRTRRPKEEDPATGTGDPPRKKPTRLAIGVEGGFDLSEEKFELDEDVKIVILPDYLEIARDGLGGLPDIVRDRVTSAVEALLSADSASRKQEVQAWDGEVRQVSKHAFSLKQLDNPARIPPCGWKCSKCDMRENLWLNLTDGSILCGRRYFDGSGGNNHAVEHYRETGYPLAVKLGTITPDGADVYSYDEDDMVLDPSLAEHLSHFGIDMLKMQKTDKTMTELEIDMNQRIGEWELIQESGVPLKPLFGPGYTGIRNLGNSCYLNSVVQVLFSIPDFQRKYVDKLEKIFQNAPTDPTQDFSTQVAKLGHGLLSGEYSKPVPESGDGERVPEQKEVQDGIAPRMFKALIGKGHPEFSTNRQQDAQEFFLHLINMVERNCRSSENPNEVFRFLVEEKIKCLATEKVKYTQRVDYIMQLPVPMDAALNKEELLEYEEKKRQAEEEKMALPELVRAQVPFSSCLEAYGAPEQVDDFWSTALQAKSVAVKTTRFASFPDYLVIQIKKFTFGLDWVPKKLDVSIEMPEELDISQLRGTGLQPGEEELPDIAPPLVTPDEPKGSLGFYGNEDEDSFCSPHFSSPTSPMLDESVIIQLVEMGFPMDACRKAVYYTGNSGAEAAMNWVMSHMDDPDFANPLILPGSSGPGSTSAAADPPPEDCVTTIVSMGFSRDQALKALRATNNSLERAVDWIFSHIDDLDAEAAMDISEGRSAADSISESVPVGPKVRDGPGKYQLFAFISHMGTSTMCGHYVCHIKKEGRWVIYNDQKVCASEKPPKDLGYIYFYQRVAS

USP2 = molecular target: T4, USP2 (UniProt O75604 259-605, limits assumed); assay: cell-based or functional assay
T4 sequence (looked up): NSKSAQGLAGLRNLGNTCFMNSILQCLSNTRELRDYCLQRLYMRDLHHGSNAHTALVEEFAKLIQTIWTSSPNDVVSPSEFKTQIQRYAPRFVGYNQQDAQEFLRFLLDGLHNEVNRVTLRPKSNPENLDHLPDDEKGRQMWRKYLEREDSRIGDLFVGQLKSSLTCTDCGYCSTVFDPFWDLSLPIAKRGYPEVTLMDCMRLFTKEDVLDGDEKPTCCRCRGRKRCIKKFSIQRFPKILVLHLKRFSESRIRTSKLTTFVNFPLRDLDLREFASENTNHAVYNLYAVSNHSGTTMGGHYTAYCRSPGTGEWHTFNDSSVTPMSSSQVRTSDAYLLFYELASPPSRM

[2] = molecular target: T5, biotinylated USP30_cd (USP30 catalytic domain with C77A mutation) (Homo sapiens (Human), UniProt Q70CQ3 57-517, limits assumed, biotinylated (site not stated)); assay: spot phage ELISA on biotinylated USP30_cd
T5 sequence: T1 sequence with C21A
Source text: The selection identified peptide USP30_{—}3 and USP30_{—}8, which had moderate spot ELISA signals (signal/noise ratios of ˜5).

Binder	IC50, inhibition of ubiquitin-AMC cleavage (initial rate, fluorescence) [1] [µM]	IC50, inhibition of ubiquitin-AMC cleavage (initial rate, fluorescence) (UCHL3) [µM]	IC50, inhibition of ubiquitin-AMC cleavage (initial rate, fluorescence) (USP5) [µM]	fold higher IC50 than for USP30 (USP5) [fold]	IC50, inhibition of ubiquitin-AMC cleavage (initial rate, fluorescence) (USP2)	fold higher IC50 than for USP30 (USP2) [fold]	signal/noise ratio (spot ELISA) [2]
PLYCFYDLTYGYLCFY (also called pep3; parent USP30-3) [peptide USP30-3]	8	> 200	49.4	> 6	~100 µM and > 200 µM	> 10	~5
VSRCYIFWNEMFCDVE (not fully specified (bridges); cysteine pairing not given here, also called pep8) [peptide USP30-8]							~5
